Columns and labels:
Assay in all cases: purified protein
Details in all cases: 160 μM NADPH, pH 6.5 phosphate, 40°C, GST fusion
purified protein [1] = substrate: CC(=O)C=O
purified protein [2] = substrate: O=CC=O
purified protein [3] = substrate: O=C[C@@H](O)CO
purified protein [4] = substrate: O=C[C@@H](O)[C@H](O)CO

B1: Err1 from T. reesei (GLD1) (Trichoderma reesei) (protein)
chain: MSSGRTVTLNTGYKIPQIGYGTWQAAPGEVGAGVFEALKVGYRHLDLAKVYGNQKEVGEGIKKALAEVPGLKREDIFITSKLWNNSHKPEDVEPALDDTLAELGLDYLDLYLIHWPVAFAPGADLFPKSEDGSEVQLNQNVSIVQTWKAMTELPKSKVRSVGVSNFTIEHLDAVIEATGVVPAVNQIERHPRLPNQPLIDYCAKKGIIITAYSAFGNNTKGLPLLVSSDEVKAVADNLSKKQGKTVTPAQVILAWSQIGGHTVIPKSVTKARIAENFQEVELDDEAIAALNKLGEKPQRFNIPYTYKPRWNINLFNTEEEKAAAHTAVIKL
- Km (purified protein [1]): 131.86 ± 1.84 µM
- kcat (purified protein [1]): 72.6 s⁻¹
- kcat/Km (purified protein [1]): 550000 M⁻¹ s⁻¹
- Km (purified protein [2]): 102.74 ± 9.76 µM
- kcat (purified protein [2]): 18.8 s⁻¹
- kcat/Km (purified protein [2]): 183000 M⁻¹ s⁻¹
- Km (purified protein [3]): 158.04 ± 5.00 µM
- kcat (purified protein [3]): 47.9 s⁻¹
- kcat/Km (purified protein [3]): 303000 M⁻¹ s⁻¹
- Km (purified protein [4]): 94.07 ± 2.46 µM
- kcat (purified protein [4]): 29 s⁻¹
- kcat/Km (purified protein [4]): 309000 M⁻¹ s⁻¹
